Values of other authors in publication PMC8469563.
pKd: −log10 of the molar value.

Molecular target: C1q (Homo sapiens) (UniProt P02745)
UniProt P02745, sequence (P02745 23-245, chain 1 of 3): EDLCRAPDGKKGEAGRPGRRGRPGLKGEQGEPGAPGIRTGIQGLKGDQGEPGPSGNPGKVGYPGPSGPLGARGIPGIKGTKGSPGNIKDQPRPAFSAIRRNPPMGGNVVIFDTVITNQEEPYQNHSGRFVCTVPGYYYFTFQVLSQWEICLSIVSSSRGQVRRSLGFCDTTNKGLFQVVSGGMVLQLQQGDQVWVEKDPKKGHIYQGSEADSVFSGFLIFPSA
UniProt P02745, sequence (P02746 28-253, chain 2 of 3, further chain): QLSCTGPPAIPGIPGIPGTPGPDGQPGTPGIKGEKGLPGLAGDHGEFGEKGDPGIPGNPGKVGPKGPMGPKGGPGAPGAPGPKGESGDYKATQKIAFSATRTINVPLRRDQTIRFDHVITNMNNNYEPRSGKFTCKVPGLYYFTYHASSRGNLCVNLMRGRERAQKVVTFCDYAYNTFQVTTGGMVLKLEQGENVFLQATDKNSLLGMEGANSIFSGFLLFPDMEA
UniProt P02745, sequence (P02747 29-245, chain 3 of 3, further chain): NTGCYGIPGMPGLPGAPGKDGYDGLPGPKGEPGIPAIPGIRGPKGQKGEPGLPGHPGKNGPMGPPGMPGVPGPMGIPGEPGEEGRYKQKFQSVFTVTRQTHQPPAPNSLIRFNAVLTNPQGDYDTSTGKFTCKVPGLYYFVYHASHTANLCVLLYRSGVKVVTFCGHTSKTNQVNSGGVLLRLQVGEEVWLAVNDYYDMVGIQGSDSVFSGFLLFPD

In the case of HMGB1 (from UniProt P09429), the pKd is given as 6.70.
